Settings: Escherichia coli (strain K12); pH 7.2; Thermal; DSC; Sodium phosphate 1 mM; reversible: yes; whole UniProt chain shown

B1: Tryptophan synthase alpha chain wild type, P0A877 (protein)
chain: MERYESLFAQLKERKEGAFVPFVTLGDPGIEQSLKIIDTLIEAGADALELGIPFSDPLADGPTIQNATLRAFAAGVTPAQCFEMLALIRQKHPTIPIGLLMYANLVFNKGIDEFYAQCEKVGVDSVLVADVPVEESAPFRQAALRHNVAPIFICPPNADDDLLRQIASYGRGYTYLLSRAGVTGAENRAALPLNHLVAKLKEYNAAPPLQGFGISAPDQVKAAIDAGAAGAISGSAIVKIIEQHINEPEKMLAALKVFVQPMKAATRS
- Tm: 59.5 °C

From FireProtDB (doi:10.1016/0003-9861(92)90047-z)
